According to patent publication US20040161798A1:

Experiments:
His6Gal80, P04387 [1] = molecular target: T1, His6Gal80, P04387; test: capture of dilute Gal80 (0.4 nM) by TentaGel-Gal80bp, Western blot
T1 chain: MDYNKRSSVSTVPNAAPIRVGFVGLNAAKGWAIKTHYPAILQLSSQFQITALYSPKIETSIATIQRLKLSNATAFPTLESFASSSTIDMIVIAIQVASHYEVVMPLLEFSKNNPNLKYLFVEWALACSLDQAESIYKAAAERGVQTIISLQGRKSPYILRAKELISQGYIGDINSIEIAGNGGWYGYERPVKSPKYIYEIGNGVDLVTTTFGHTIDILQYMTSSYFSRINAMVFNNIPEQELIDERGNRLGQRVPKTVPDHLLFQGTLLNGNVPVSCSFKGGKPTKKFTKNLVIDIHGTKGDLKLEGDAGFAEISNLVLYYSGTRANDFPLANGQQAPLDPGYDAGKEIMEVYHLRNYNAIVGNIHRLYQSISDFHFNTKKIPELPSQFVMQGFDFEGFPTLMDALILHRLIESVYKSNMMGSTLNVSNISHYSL

His6Gal80, P04387 [2] = molecular target: T1, His6Gal80, P04387; test: dilution assay on TentaGel beads, Western blot
His6Gal80, P04387 [3] = molecular target: T1, His6Gal80, P04387; test: capture of dilute Gal80 by TentaGel-Gal80bp, Western blot against a calibration blot
His6Gal80, P04387 [4] = molecular target: T1, His6Gal80, P04387; test: capture of Gal80 by 2 mg of TentaGel-Gal80bp at the higher protein concentrations, Western blot
His6Gal80, P04387 [5] = molecular target: T1, His6Gal80, P04387; test: fluorescence polarization after adding excess unlabeled peptide
His6Gal80, P04387 [6] = molecular target: T1, His6Gal80, P04387; test: fluorescence polarization titration of fluorescein-labeled peptide in solution
His6Gal80, P04387 [7] = molecular target: T1, His6Gal80, P04387; test: fluorescence polarization in solution: fluorescein-labelled peptide titrated with Gal80 protein

percent of the protein bound to the beads (His6Gal80, P04387 [1]): 100%
bound protein left on the beads (percent of the original level) (His6Gal80, P04387 [2]): 50%
Kd (His6Gal80, P04387 [3]): < 0.4 nM
amount of protein retained on the beads (His6Gal80, P04387 [4]): 50 ng
half-life of the complex in solution (His6Gal80, P04387 [5]): < 10 s
Kd (His6Gal80, P04387 [6]): 300 nM
Kd (His6Gal80, P04387 [7]): 200 nM
Binder: YDQDMQNNTFDDLFWKEGHR (modifications not checked) [Gal80bp]
